Measured values published in the supplement of paper PMC10201428.
± gives the standard deviation of the averaged measurements.

B1: library; a variant is named by its letters at N, in order (parent)
chain: ACATTTGTTGATACAACCATAAAATGATAATTACACCCATAAATTGATAATTATCACACCCANNNNNNNNNNNNNNCTCTGATCATAGTCAGACCAACATTGCTACGACCCGTATTCGCACCGACAC

Key:
[1] = variants of: B1; assay: relative integration efficiency (T-RL orientation) vs wild-type transposon end (log2 (normalized fold change)); transposon end mutated: right end (5 bp flank + 75 bp right end); higher = more efficient transposition; details: with VchCAST RNA-guided transposition machinery (E. coli BL21(DE3) host, lacZ target)
Protocol: (§1)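 Pooled, barcoded VchCAST (Tn6677) mini-transposon donor libraries; each variable transposon-end sequence sits in a fixed pDonor mini-transposon context (10-bp barcode and cargo not included). Left- or right-end libraries were co-transformed with pEffector (TniQ-Cascade, TnsABC, lacZ crRNA, T7, 0.1 mM IPTG) into E. coli BL21(DE3) and grown 18 h at 37 C. T-LR and T-RL junction amplicons were sequenced; output/input barcode fold change was normalised to the mean of four wild-type barcodes and log2-transformed. Two biological replicates; zero-count/undetected variants carry floor values (-10 / -15), censored here. Barcode uncoupling by PCR recombination adds noise.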

[2] = variants of: B1; assay: relative integration efficiency (T-LR orientation) vs wild-type transposon end (log2 (normalized fold change)); transposon end mutated: right end (5 bp flank + 75 bp right end); higher = more efficient transposition; details: with VchCAST RNA-guided transposition machinery (E. coli BL21(DE3) host, lacZ target)
Protocol: as §1

Variant | relative integration efficiency (log2) [1] | relative integration efficiency (log2) [2]
TAAATTGATATTGC A53T | -0.33 ± 0.038 | -0.318 ± 0.48
TAAATTGATATTGC A53C | -0.408 ± 0.19 | 0.07 ± 0.052
TAAATTGATATTGC C60A | -0.462 ± 0.027 | 1.55 ± 0.14
GCAATTGATATTGC | -0.508 ± 0.047 | 2.25 ± 0.12
TAAATTGATATTGC A1T | -0.0487 ± 0.062 | -0.0517 ± 0.26
TAAATTGATATTGC A35T | -0.27 ± 0.02 | -0.45 ± 0.076
TAAATTGATATTGC A35G | -0.559 ± 0.067 | -0.531 ± 0.13
TAAATTGATATTGC T4C | -0.0535 ± 0.0038 | -0.0603 ± 0.29
GCCCTTGATATTGC | -0.468 ± 0.1 | 2.5 ± 0.11
TAAAAAGATATTGC | -0.0646 ± 0.032 | 1.04 ± 0.075
ATTTAACTATAACG A42G | -1.62 ± 0.22 | 1.19 ± 0.16
TAAATTGATATTGC G46C | -0.936 ± 0.067 | -0.847 ± 0.31
TAAATTGATATTGC A33G | 0.137 ± 0.055 | -0.127 ± 0.057
TAAATTGATATTGC A33T | -0.264 ± 0.0049 | -0.243 ± 0.38
TAAATTGCGATTGC | -0.463 ± 0.06 | 1.51 ± 0.028
TAAATTGATATACG C77G | 0.221 ± 0.0027 | 0.3 ± 0.0057
ATTTAACTATAACG A39T | -1.34 ± 0.21 | 1.59 ± 0.1
TAAATTGATATTGC T8A | -0.814 ± 0.13 | -1.99 ± 0.69
TAAATTGATTTTGC | -0.0591 ± 0.014 | 0.338 ± 0.22

Variant | relative integration efficiency (log2) [1] | relative integration efficiency (log2) [2]
TTAATTGATATTGC | -0.072 ± 0.011 | 0.636 ± 0.14
TAACTTGATATTGC | 0.11 ± 0.027 | 0.325 ± 0.16
ATTTAACTATAACG A27T | -1.93 ± 0.43 | 1.735 ± 0.0049
ATTTAACTATAACG A27G | -1.43 ± 0.34 | 2.14 ± 0.29
TAAATTGATATTGC T28G | -0.476 ± 0.036 | 0.189 ± 0.11
TTTTATGATATTGC | -0.0751 ± 0.044 | 0.744 ± 0.14
ATTTAACTATAACG C18T | -0.685 ± 0.013 | 2.16 ± 0.14
ATTTAACTATAACG C18G | -1.04 ± 0.083 | 1.98 ± 0.099
TAAATTGATATTGC A22T | -0.215 ± 0.042 | -0.148 ± 0.0031
TAAATTGATATTGC A22G | -0.771 ± 0.018 | -1.09 ± 0.47
TAAATTGATATTGC A29C | -0.793 ± 0.055 | -0.254 ± 0.12
TAAATTGATATTGC A24C | 0.238 ± 0.12 | 0.1 ± 0.21
TAAATTGATATTGC A24G | 0.266 ± 0.047 | 0.156 ± 0.052
TAAATTGATATTGC T12G | -0.147 ± 0.043 | -1.06 ± 0.57
TAAATTGATATTGC T12A | -0.107 ± 0.031 | -0.916 ± 0.17
TAAATTGATATTGC G7A | -0.0765 ± 0.034 | -0.974 ± 0.015
TAAATTCTTATTGC | -0.485 ± 0.094 | 2.36 ± 0.24
TAAATTGATATTCC | -0.154 ± 0.11 | -0.146 ± 0.21
TAAATTGATATTGC T52A | -0.149 ± 0.095 | 0.276 ± 0.4

Variant | relative integration efficiency (log2) [1] | relative integration efficiency (log2) [2]
TAAATTGATATTGC A50T | -0.455 ± 0.22 | -0.0702 ± 0.025
TAAATTGATATTGC A50C | -0.321 ± 0.012 | -0.213 ± 0.17
TAAATTGATATTGC T31A | -0.436 ± 0.1 | 0.0674 ± 0.1
TAAATTGATATTGC T31G | -0.564 ± 0.13 | 0.2 ± 0.23
TAAATTGATATTGC T31C | -0.0667 ± 0.0077 | 0.344 ± 0.35
ATTTAACTATAACG A23T | -0.809 ± 0.12 | 1.952 ± 0.015
ATTTAACTATAACG A23C | -1.16 ± 0.088 | 1.98 ± 0.17
ATTTAACTATAACG A23G | -0.928 ± 0.18 | 2.07 ± 0.26
ATTTAACTATAACG A30C | -1.2 ± 0.42 | 2.682 ± 0.016
ATTTAACTATAACG T32G | -1.87 ± 0.28 | 2.2 ± 0.18
ATTTAACTATAACG T32A | -1.5 ± 0.28 | 2.13 ± 0.036
TAAATTGATATTGC C79T | 0.00455 ± 0.031 | -0.191 ± 0.27
TAAATTGATATTGC C79A | -0.158 ± 0.087 | -0.334 ± 0.18
TAAATTGATATTGC T5A | 0.0941 ± 0.11 | 0.163 ± 0.31
TAAATTGATATTGC T48C | -0.4021 ± 0.003 | -0.401 ± 0.25
ATTTAACTATAACG A15T | -1.1 ± 0.15 | 1.8 ± 0.077
ATTTAACTATAACG A15C | -0.749 ± 0.29 | 2.73 ± 0.074
TCCCGTGATATTGC | -0.648 ± 0.091 | 2.35 ± 0.13
ATTTAACTATAACG A16T | -0.779 ± 0.2 | 2.59 ± 0.066
